Results reported in patent US20110287023A1 (AstraZeneca / MedImmune, published 2011).

B1: human anti-HMG1 antibody S16 (antibody, IgG1, V domains shown)
VH: EVQLLESGGGLVQPGGSLRLSCAASGFTFSWYSMLWVRQAPGKGLEWVSYISPSGGFTNYADSVKGRFTISRDNSKNTLYLQMNSLRAEDTAVYYCARWDYNSGWYYDHWGQGTLVTVSS
VL: DIQMTQSPDTLSLSPGERATLSCRASQSVNSRNLAWYQQKPGQAPRLLIYGASTRATGIPDRFSGSVSGTEFTLTISSLQPDDFATYYCQQYNSYFTFGQGTKLEIK
notes: full length IgG1 made from a human Fab phage clone; also called ATCC PTA-6259
B2: human anti-HMG1 antibody G4 (antibody, IgG1, V domains shown)
VH: EVQLLESGGGLVQPGGSLRLSCAASGFTFSWYDMTWVRQAPGKGLEWVSSISPSGGYTKYADSVKGRFTISRDNSKNTLYLQMNSLRAEDTAVYYCTTEFYDYLDVWGKGTTVTVSS
VL: DIQMTQSPGTLSLSPGEGATLSCRASQSVSSTYLAWYQQKPGQAPRLLIYEASKRATGTPARFSGSGSGTDFTLSISSLEPEDFAVYYCQHRHNWPPQWTFGQGTKVEVK
notes: full length IgG1 made from a human Fab phage clone; also called ATCC PTA-6258
B3: human anti-HMG1 antibody S6 (antibody, V domains shown)
VH: EVQLLESGGGLVQPGGSLRLSCAASGFTFSWYDMSWVRQAPGKGLEWVSRISPSGGYTMYADSVKGRFTISRDNSKNTLYLQMNSLRAEDTAVYYCARLEVGATSGGTAFDIWGQGTMVTVSS
VL: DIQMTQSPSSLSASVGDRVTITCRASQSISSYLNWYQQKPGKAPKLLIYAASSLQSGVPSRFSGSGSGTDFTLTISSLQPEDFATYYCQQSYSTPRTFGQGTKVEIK
notes: full length IgG1 made from a human Fab phage clone; two paragraphs print 'S4' for the PTA-6143 deposit; also called ATCC PTA-6143
B4: human anti-HMG1 antibody E11 (antibody, IgG1, V domains shown)
VH: EVQLLESGGGLVQPGGSLRLSCAASGFTFSRYQMNWVRQAPGKGLEWVSSISPSGGHTHYADSVKGRFTISRDNSKNTLYLQMNSLRAEDTAVYYCAKDGRQGKISTVDHWGQGTLVTVSS
VL: DIQMTQSPGTLSLSPGERATLSCRASQSVRSNFLAWYQQKPGQAPRLLIYGASRRASGIPDRFSGSGFGADFTLSISRLEPEDFAVYYCQQYGSSPNTFGQGSRVEIK
notes: full length IgG1 made from a human Fab phage clone

Key:
[1] = molecular target: T1, recombinant HMG1 produced in E. coli as a calmodulin binding protein (CBP) fusion (human); assay: cell-based or functional assay
T1 sequence (P09429 whole entry, the tested form may be a part): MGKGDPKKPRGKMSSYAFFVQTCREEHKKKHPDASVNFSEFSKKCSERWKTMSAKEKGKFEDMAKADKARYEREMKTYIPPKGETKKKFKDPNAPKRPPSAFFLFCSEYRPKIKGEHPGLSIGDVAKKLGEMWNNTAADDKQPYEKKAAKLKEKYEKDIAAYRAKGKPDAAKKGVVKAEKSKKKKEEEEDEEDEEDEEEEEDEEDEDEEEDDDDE

[2] = molecular target: T1, recombinant HMG1 produced in E. coli as …; assay: ELISA, coated RAGE-Fc, rHMG1 preincubated with antibody
Description: HMG1 binding to RAGE-Ig by ELISA: 50 μl/well of RAGE-Fc fusion protein at 5 μg/ml in PBS was added to each well of an ELISA plate and incubated overnight at 4° C. The plate was then blocked with 200 μl of 5% milk at 37° C. for 1 hr and washed 3× with PBS/Tween. 50 μl/well of diluted HMGB1 solution. For dose curves, HMGB1 concentrations started at 4 ug/ml in PBS. For antibody blocking the HMGB1 was preincubated in another plate with human anti-HMG1 antibodies or buffer, then transferred to the RAGE-coated plate. The plates were then incubated at room temperature for 2 hours and washed 3×. To detect any HMG1 bound to the immobilized RAGE-Fc a mixture of biotinylated mouse anti-HMG1 mAbs (10D4, 4H11, 3E10 and 5C12) each at 1 ug/ml, total Ab: 4 ug/ml, were added to each well and the plate was incubated for 1 hour at room temperature. The plate was then washed and Strepavidin-HPR was added to each well and incubated 15 min. The plate was then washed 3× and blotted dry. 100 μl of TMB developing agent was added and the plate read at 650 nm. Values were calculated as percent of inhibition with HMG1 alone equal to 0% inhibition. The data in FIG. 9 and summarized in Table 1 represent the average of two separate experiments.

[3] = molecular target: T1, recombinant HMG1 produced in E. coli as …; assay: BIAcore 3000, mAb amine-coupled to CM5, HMG1 injected, steady-state model
Summary of the method: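 Each mAb amine-coupled to a CM5 chip alongside a reference flow cell; two-fold serial dilutions of E. coli-expressed CBP-fusion HMG1 injected at slow flow. Surfaces regenerated with 1M NaCl-50 mM NaOH. Affinity derived from binding curves by a steady-state model.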

[4] = molecular target: T2, HMG2 coated on ELISA plates (Bos taurus (Bovine), UniProt P40673 2-209); assay: direct ELISA, HMGB2 coated at 5 ug/mL, antibody at 10 ug/mL, anti-human kappa/lambda-HRP, OD 490
T2 construct: also called HMGB2; HMBG2
T2 sequence: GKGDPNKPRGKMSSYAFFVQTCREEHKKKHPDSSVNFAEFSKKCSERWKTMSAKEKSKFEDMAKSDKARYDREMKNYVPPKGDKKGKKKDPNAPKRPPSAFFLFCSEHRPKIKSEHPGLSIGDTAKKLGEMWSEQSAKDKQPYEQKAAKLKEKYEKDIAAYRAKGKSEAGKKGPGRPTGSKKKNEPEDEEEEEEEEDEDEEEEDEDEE
Description: Binding to HMG1 vs. HMG2: Ultra high-binding ELISA plates (ThermoLab systems, #3855) were coated with either 5 ug/mL of Calf thymus HMGB1 or HMBG2 diluted in 10 mM Phosphate buffered saline (PBS), pH 7.2 and incubate overnight at 4 degrees. The plates were washed twice with Ca and Mg free PBS and 100 microliters of anti-HMGB1 antibody diluted in 10 mM PBS, pH 7.2+1% bovine serum albumin (BSA) to a final concentration of 10 ug/mL was added to each well and the plates were incubated 1 hour at room temperature. The wells were washed three times with 100 μl of PBS, pH 7.2. HRP labeled goat-anti-human IgG Kappa-chain (KPL, #14-10-10) and goat-anti-human IgG Lambda-chain (KPL, #14-10-11) were diluted in 10 mM PBS+1% BSA 1:1000 and 100 μl were added to each well and incubated for 1 hour at room temperature. The wells were then washed three times with 100 μl of PBS, pH 7.2. OPD substrate (Pierce chemical company, #34006) was prepared following the manufacturers instructions and 100 μl of prepared substrate was added to each well and the plates incubated at room temperature in the dark for 20-30 minutes. The reaction was stopped with the addition of 100 μl of 2M H₂SO₄, and the plates read on a plate reader at a wavelength of 490 nm.

[5] = molecular target: T3, HMG1 purified from calf (bovine) thymus (bovine, UniProt P10103 2-215); assay: direct ELISA, calf thymus HMGB1 coated at 5 ug/mL, antibody at 10 ug/mL, anti-human kappa/lambda-HRP, OD 490
T3 construct: also called Calf thymus HMGB1; thymus HMG1
T3 sequence (looked up): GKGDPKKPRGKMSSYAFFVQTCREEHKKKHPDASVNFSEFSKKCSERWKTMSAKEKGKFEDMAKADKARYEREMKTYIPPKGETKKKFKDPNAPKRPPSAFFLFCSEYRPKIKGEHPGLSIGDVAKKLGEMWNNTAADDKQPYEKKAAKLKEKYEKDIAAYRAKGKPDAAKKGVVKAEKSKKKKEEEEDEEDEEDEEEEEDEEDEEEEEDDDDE
Summary of the method: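 Calf thymus HMGB1 or HMGB2 coated at 5 ug/mL in 10 mM PBS pH 7.2 overnight at 4 °C; anti-HMGB1 antibody added at 10 ug/mL final in PBS + 1% BSA, 1 h at room temperature. Detection with HRP anti-human kappa plus lambda (1:1000, 1 h), OPD substrate 20-30 min in the dark, H₂SO₄ stop, absorbance 490 nm.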

[6] = molecular target: T4, HMG1 B Box peptide amino acids 150-183; assay: ELISA, HMG1 B Box peptide 150-183 coated at 10 ug/ml, antibody titrated, OD 450
T4 peptide: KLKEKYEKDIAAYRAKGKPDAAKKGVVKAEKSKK
Summary of the method: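 Plates blocked with 4% milk/PBS, or biotinylated peptides captured on avidin wells after 1% BSA blocking (30 min RT). Human anti-HMG1 antibodies titrated or serially diluted from 10 μg/ml, detected with anti-human IgG-HRP and TMB substrate, absorbance at 450 nm.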

Binder | IC50 IL-1β [1] | IC50 IL-6 [1] | IC50 IL-12 [1] | IC50 TNF-α [1] | percent inhibition of HMG1 binding to RAGE [2] | Kd [3] | binding result [4] | binding result [5] | binding result [6] | IC50 NO [1]
B1 | 6050 ng/mL | 0.56 nM | 1240 ng/mL | 1440 ng/mL | ≥ 35% | 23 nM | binds | binds |  | 
B2 | 5020 ng/mL | 0.9 nM | 715 ng/mL | 5510 ng/mL |  | 30 nM |  | binds | no binding (tested: 10 ug/ml (log 1.0)) | 
B3 | 23.1 ng/mL | 0.174 nM |  | 18.2 ng/mL | ≥ 35% | 39 nM |  | binds | no binding (tested: 10 ug/ml (log 1.0)) | 4.15 µg/mL
B4 |  | 1.22 nM |  |  |  |  | binds |  | no binding (tested: 10 ug/ml (log 1.0)) | 101 µg/mL
